Assay results as given in US20150051136A1.
pKd: −log10 of the molar value.

Columns and labels:
[1] = molecular target: HMGB1 (high mobility group box 1); assay: cell-based or functional assay
S100B [2] = assay: cell-based or functional assay
S100B [3] = assay: BIAcore SPR, sRAGE amine-coupled to CM5 chip, S100B as analyte, steady state model
[4] = molecular target: HMGB1 (high mobility group box 1); assay: HMGB1 ELISA (as in Liu et al. 2009)
[5] = molecular target: HMGB1 (high mobility group box 1); assay: BIAcore SPR, sRAGE amine-coupled to CM5 chip, HMGB1 as analyte, 1:1 Langmuir model

Sequence of sRAGE^sf9 (human T7-sRAGE produced in baculovirus-infected sf9 insect cells) (Q15109 23-340, tags or fused parts left off): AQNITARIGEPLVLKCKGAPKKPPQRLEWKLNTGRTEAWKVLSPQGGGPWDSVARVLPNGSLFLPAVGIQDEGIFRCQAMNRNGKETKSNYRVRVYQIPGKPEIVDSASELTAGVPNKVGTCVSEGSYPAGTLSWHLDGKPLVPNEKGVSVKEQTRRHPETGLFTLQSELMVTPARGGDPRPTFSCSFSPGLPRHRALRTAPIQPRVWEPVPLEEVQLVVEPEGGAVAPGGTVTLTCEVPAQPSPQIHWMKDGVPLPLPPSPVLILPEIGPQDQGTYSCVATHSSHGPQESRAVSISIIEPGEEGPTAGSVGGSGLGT
Sequence of S100B (D3DSN6 whole entry): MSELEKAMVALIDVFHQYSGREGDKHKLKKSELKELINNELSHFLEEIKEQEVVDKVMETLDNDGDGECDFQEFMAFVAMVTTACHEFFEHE
Sequence of sRAGE^CHO(desialylated) (Q15109 other isoform, or with tags, fused parts or gaps): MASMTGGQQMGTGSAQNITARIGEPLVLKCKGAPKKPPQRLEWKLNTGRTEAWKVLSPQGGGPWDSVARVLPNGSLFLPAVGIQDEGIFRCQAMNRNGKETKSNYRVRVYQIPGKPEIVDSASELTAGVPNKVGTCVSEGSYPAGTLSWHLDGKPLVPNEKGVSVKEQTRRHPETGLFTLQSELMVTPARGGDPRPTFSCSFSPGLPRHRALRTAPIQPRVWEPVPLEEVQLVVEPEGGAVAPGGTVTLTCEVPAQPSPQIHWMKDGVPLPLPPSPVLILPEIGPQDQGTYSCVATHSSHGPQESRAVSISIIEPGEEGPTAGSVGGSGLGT
Sequence of sRAGE^CHO (human T7-Gly-Ser-RAGE (23-340) polypeptide produced in CHO-CD14 cells) (Q15109 other isoform, or with tags, fused parts or gaps): as above
Sequence of HMGB1 (high mobility group box 1) (P09429 whole entry): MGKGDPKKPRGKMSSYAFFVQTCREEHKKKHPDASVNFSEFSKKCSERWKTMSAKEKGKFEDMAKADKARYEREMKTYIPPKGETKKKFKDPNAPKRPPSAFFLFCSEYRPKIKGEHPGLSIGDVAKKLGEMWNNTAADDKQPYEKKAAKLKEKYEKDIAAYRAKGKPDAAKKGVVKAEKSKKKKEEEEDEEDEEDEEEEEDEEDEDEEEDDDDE

sRAGE^CHO(desialylated) (from UniProt Q15109 23-340) (receptor)
inhibition of HMGB1-induced NF-κB activity (luciferase reporter, HEK293-RAGE cells; 100 nM ligand, 100 nM sRAGE) [1]: 25.8% | inhibition of s100B-induced NF-κB activity (luciferase reporter, HEK293-RAGE cells; 100 nM ligand, 100 nM sRAGE) (S100B [2]): 18% | pKd (S100B [3]): 7.60

sRAGE^sf9 (human T7-sRAGE produced in baculovirus-infected sf9 insect cells) (from UniProt Q15109 23-340) (receptor)
inhibition of HMGB1-induced NF-κB activity (luciferase reporter, HEK293-RAGE cells; 100 nM ligand, 100 nM sRAGE) [1]: 19.7% | inhibition of s100B-induced NF-κB activity (luciferase reporter, HEK293-RAGE cells; 100 nM ligand, 100 nM sRAGE) (S100B [2]): 20.4% | pKd (S100B [3]): 7.49

sRAGE^CHO(N25T/N81T) (from UniProt Q15109 26-340) (receptor)
pKd [4]: 6.28 | fold of the dissociation constant (Kd) against wild-type sRAGE [4]: 10 fold | inhibition of HMGB1-induced NF-κB activity (luciferase reporter, HEK293-RAGE cells; 100 nM ligand, 100 nM sRAGE) [1]: 0.3%

sRAGE^CHO (human T7-Gly-Ser-RAGE (23-340) polypeptide produced in CHO-CD14 cells) (from UniProt Q15109 23-340) (receptor)
pKd [4]: 7.31 | inhibition of HMGB1-induced NF-κB activity (luciferase reporter, HEK293-RAGE cells; 100 nM ligand, 100 nM sRAGE) [1]: 58.6% | inhibition of s100B-induced NF-κB activity (luciferase reporter, HEK293-RAGE cells; 100 nM ligand, 100 nM sRAGE) (S100B [2]): 40.2% | pKd (S100B [3]): 7.04 | pKd [5]: 7.88
